These results are taken from the nanobody polyreactivity screen of Harvey et al. (2022).

The data set can be described thus: yeast display, Sf9 membrane polyspecificity reagent, FACS + sequencing; frameworks hold sequencing errors. The essentials:
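Sorting gates, low and high (top ~1%), were placed on anti-HA fluorescence to track expression and on streptavidin fluorescence to track reagent binding. A clone's polyreactivity label is taken from the gate it came out of. The reagent was 10% biotinylated, detergent-solubilized Sf9 membrane, applied for 1 hour at 4 °C to galactose-induced yeast display cells.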
As for “QVQLVESGGGLVQAGGSLRLSCAASGRIFYYNAMGWYRQAPGKEMELVAAITSGGSTNYADSVKGRFTISRDNAKNTVYLQMNSLKPEDTAVYYCAADYYYYVAGVHYDYWGQGTQVTVSS”, the “polyreactivity (PSR sort gate)” value was “low polyreactivity”.

In the case of “QVQLVESGGGLVQAGGSLRLSCAASGRIFYYNAMGWYRQAPGKERELVAAINYRGGSTYYADSVKGRFTISRDNAKNTVYLQMNSLKPEDTAVYYCAARYWEDGSTYDYWGQGTQVTVSS”, the “polyreactivity (PSR sort gate)” value was “high polyreactivity”.

On to “QVQLVESGGGLVQAGGSLRLSCAASGRIFYYNDMGWYRQAPGKERELVATITIGNSTNYADSVKGRFTISRDNAKNTVYLQMKSLKPEDTAVYYCNADYSDVTTGDWRYENDYWGQGTQVTVSS”, for which the “polyreactivity (PSR sort gate)” value is given as “low polyreactivity”.

Take “QVQLVESGGGLVQAGGSLRLSCAASGRIFYYNDMGWYRQAPGKERELVATITIGNSTNYADSVKGRFTISRDNAKNTVYLQMNSLKPEDTAVYYCNADYSDVTTGDWRYENDYWGQGTQVTVSS”: the “polyreactivity (PSR sort gate)” value is on record as “low polyreactivity”.

As for “QVQLVESGGGLVQAGGSLRLSCAASGRIFYYNTMGWYRQAPGKERELVARITYSGGRTYYADSVKGRFTISRDNAKNTVYLQMNSLKPEDTAVYYCNTAYRYFERQMYYWGQGTQVTVSS”, the “polyreactivity (PSR sort gate)” value was “high polyreactivity”.

In the case of “QVQLVESGGGLVQAGGSLRLSCAASGRIFYYNVMGWYRQAPGKERELVAAITWSGGSTYYADSVKGRFTISRDNAKNTVYLQMNSLKPEDTAVYYCAAKFSKWTLKKYYYWGQGTQVTVSS”, the “polyreactivity (PSR sort gate)” value is reported as “high polyreactivity”.

With “QVQLVESGGGLVQAGGSLRLSCAASGRIFYYNVMGWYRQAPGKERELVADIRSGDRTYYADSVKGRFTISRDNAKNTVYLQMNSLKPEDTAVYYCAADGWYRRGYYYWGQGTQVTVSS”, the “polyreactivity (PSR sort gate)” value was “low polyreactivity”.

Consider “QVQLVESGGGLVQAGGSLRLSCAASGRIFYYYALGWYRQAPGKERELVAAISSIDGTTYYADSVKGRFTISRDNAKNTVYLQMNSLKPEDTAVYYCAAEDPADQYDYWGQGTQVTVSS”, for which the “polyreactivity (PSR sort gate)” value is reported as “high polyreactivity”.

For “QVQLVESGGGLVQAGGSLRLSCAASGRIFYYYAMGWYRQAPGKEREFVAAIRVTSDSTYYADSVKGRFTISRDNAKNTVYLQMNSLKPEDTAVYYCAADSFYFPYDYWGQGTQVTVSS”, the “polyreactivity (PSR sort gate)” value was “high polyreactivity”.

As to “QVQLVESGGGLVQAGGSLRLSCAASGRIFYYYAMGWYRQAPGKEREFVADISARGGSTYYADSVKGRFTISRDNAKKTVYLEMNSLKPEDTAVYYCAATTGLYTRYGYWGQGTQVTVSS”, the “polyreactivity (PSR sort gate)” value is on record as “high polyreactivity”.

Take “QVQLVESGGGLVQAGGSLRLSCAASGRIFYYYAMGWYRQAPGKERELVAAITRGGGTYYADSVKGRFTISRDNAKNTVYLQMNSLKPEDTAVYYCAKRGPPESHHPYRYRFDYWGQGTQVTVSS”: the “polyreactivity (PSR sort gate)” value is “low polyreactivity”.

As to “QVQLVESGGGLVQAGGSLRLSCAASGRIFYYYAMGWYRQAPGKERELVAAITSGGRTYYADSVKGRFTISRDNAKNTVYLQMNSLKPEDTAVYYCAADRTYTYLGPGYEYWGQGTQVTVSS”, the “polyreactivity (PSR sort gate)” value is given as “low polyreactivity”.

For “QVQLVESGGGLVQAGGSLRLSCAASGRIFYYYAMGWYRQAPGKERELVAVISRGGRTKYADSVKGRFTISRDNAKNTVYLQMNSLKPEDTAVYYCAVGLSGASSGMGYWGQGTQVTVSS”, the “polyreactivity (PSR sort gate)” value is on record as “high polyreactivity”.

In the case of “QVQLVESGGGLVQAGGSLRLSCAASGRIFYYYDMGWYRQAPGNERELVAGINDDSSTYYADSVKGRFTISRDNAKNTVYLQMNSLKPEDTAVYYCNAGPSWYPCWYYYWGQGTQVTVSS”, the “polyreactivity (PSR sort gate)” value is “low polyreactivity”.

“QVQLVESGGGLVQAGGSLRLSCAASGRIFYYYTMGWYRQAPGKERELVAAITSNGGSTYYADSVKGRFTISRDNAKNTVYLQMNSLKPEDTAVYYCAADSYSYRYYYWGQGTQVTVSS”: the “polyreactivity (PSR sort gate)” value is “high polyreactivity”.

With “QVQLVESGGGLVQAGGSLRLSCAASGRIFYYYTMGWYRQAPGKERELVAGISRSGDRTYYADSVKGRFTISRDNAKNTVYLQMNSLKPEDTAVYYCATRWSSARMDYWGLGTQVTVSS”, the “polyreactivity (PSR sort gate)” value is on record as “high polyreactivity”.

In the case of “QVQLVESGGGLVQAGGSLRLSCAASGRIGKYAMGWYRQAPGKERELVATISSTGTTNYADSVKGRFTISRDNAKNTVYLQMNSLKPEDTAVYYCAGRWEYVGYRRRYYRFDYWGQGTQVTVSS”, the “polyreactivity (PSR sort gate)” value is “high polyreactivity”.

Turning to “QVQLVESGGGLVQAGGSLRLSCAASGRIIAKYAMGWYRQAPGKERELVAAINWGGGSTYYADSVKGRFTISRDNAKITVYLQMNSLKPEDTAVYYCNRTPRSKGNYWGQGTQVTVSS”, the “polyreactivity (PSR sort gate)” value was “high polyreactivity”.

Consider “QVQLVESGGGLVQAGGSLRLSCAASGRIIARYAMGWSRQAPGKERELVAAISRGGGRTYYADSVKGRFTISRDNATNTVYLQMNSLKPEDTAVYYCAADAYSIASVGYDYWGQGTQVTVSS”, for which the “polyreactivity (PSR sort gate)” value is given as “high polyreactivity”.

For “QVQLVESGGGLVQAGGSLRLSCAASGRIIDDNAMGWYRQAPGKERELVASITVSTGSTYYADSVKGRFTISRDNAKNTVYLQMNSLKPEDTAVYYCDAPYITPYGTYVFSSDYWGQGTQVTVSS”, the “polyreactivity (PSR sort gate)” value is “low polyreactivity”.

On to “QVQLVESGGGLVQAGGSLRLSCAASGRIIDRNAMGWYRQAPGKERELVAAISSSGSTNYADSVKGRFTISRDNAKNTVYLQMNSLKPEVTAVYYCAARWRSVLAAGTRPVSFDYWGQGTQVTVSS”, for which the “polyreactivity (PSR sort gate)” value is “low polyreactivity”.

Consider “QVQLVESGGGLVQAGGSLRLSCAASGRIIGGNAMGWYRPAPGKEREFVAAIRASGGSTHYADSVKGRFTISRDNAKNTVYLQMNSLKPEDTAVYYCNTYRARLGTTFIDYDYWGQGTQVTVSS”, for which the “polyreactivity (PSR sort gate)” value is on record as “high polyreactivity”.

As to “QVQLVESGGGLVQAGGSLRLSCAASGRIIGGYAMGWYRQAPGKERELVAAITFRSGTTYYADSVKGRFTISRDNAKNTVYLQMNSLKPEDTAVYYCAARWGPYAFTYVRTYDYWGQGTQVTVSS”, the “polyreactivity (PSR sort gate)” value is reported as “low polyreactivity”.

For the sequence “QVQLVESGGGLVQAGGSLRLSCAASGRIIGRYAMGWYRPAPGKERELVAAISSSGSTYYADSVKGRFTISRDNAKNTVYLQMNSLKPEDTAVYYSAAYYRGRAYISYGYWGQGTQVTVSS”, the “polyreactivity (PSR sort gate)” value is “high polyreactivity”.

Turning to “QVQLVESGGGLVQAGGSLRLSCAASGRIIGSYAMGWYRQAPGKERELVAAISRGGITNYADSVKGRFTIARDNAKNTVYLQMNSLKPEDTAVYYCAVGIRYRGRQGYYGYYTYDYWGQGTQVTVSS”, the “polyreactivity (PSR sort gate)” value was “high polyreactivity”.

As for “QVQLVESGGGLVQAGGSLRLSCAASGRIIGTNARGWYRQAPGNERELVASISSRSTRTYYADSVKGRFTISRDNAKNTVYLQMNSLKPEDTAVYYCAARYPYYVHYDYWGQGTQVTVSS”, the “polyreactivity (PSR sort gate)” value is “high polyreactivity”.

As to “QVQLVESGGGLVQAGGSLRLSCAASGRIIIGYVMGWYRQAPGKERELVATISYSGGSTYADSVKGRFTISRDNAKNTVYLQMNSLKPEDTAVYYCAARPYYRYYRYPYGYWGQGTQVTVSS”, the “polyreactivity (PSR sort gate)” value was “high polyreactivity”.

As to “QVQLVESGGGLVQAGGSLRLSCAASGRIIKFYAMGWYRQAPGKERELVARISRSGGRTYYADSVKGRFTISRDNAKITVYLQMNSLKPEDTAVYYCAADTQSVATYDYWGQGTQVTVSS”, the “polyreactivity (PSR sort gate)” value was “low polyreactivity”.

Take “QVQLVESGGGLVQAGGSLRLSCAASGRIINYNARGWYRQAPGKERELVAAISSSGGSTYYADSVKGRFTISRDNAKNTVYLQMNSLKPEDTAVYYCNALGTTEYWSRDDYWGQGTQVTVSS”: the “polyreactivity (PSR sort gate)” value is on record as “low polyreactivity”.

With “QVQLVESGGGLVQAGGSLRLSCAASGRIIQYNAMGWYRQAPGKERELVAAMSWRSGRTYYADSVKGRFTISRDNAKNTVYLQMNSLKPEDTAVYYCAATSRTSWYGYWGQGTQVTVSS”, the “polyreactivity (PSR sort gate)” value is on record as “high polyreactivity”.
